Results taken from the supplement of paper PMC10724198.
± gives the standard deviation of the averaged measurements.

Experiments:
[1] = test system: Saccharomyces cerevisiae; test: protein stability index of tFT-peptide fusion (C-terminal peptide) (PSI (0-1 scale)); higher = more stable (slower turnover)
Description: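 MPS profiling in S. cerevisiae of the tFT-X12 degron library: putative degron peptides plus stable controls, 12 aa, fused to the C-terminus of a sfGFP-mCherry timer. Cells are FACS-sorted into 8 mCherry/sfGFP bins and deep-sequenced. PSI runs from 0 (unstable) to 1 (stable). Backgrounds are wild type, das1Δ and doa10Δ at 30 °C, and wild type, das1Δ, cdc34-1 and cdc53-1 at 37 °C; 2-3 technical replicates each.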

[2] = test system: Saccharomyces cerevisiae; test: as above; settings: genetic background: wild type; temperature: 30 C
[3] = genetic background: cdc34-1, temperature: 37 C
[4] = genetic background: cdc53-1, temperature: 37 C
[5] = genetic background: das1 deletion, temperature: 30 C
[6] = genetic background: das1 deletion, temperature: 37 C
[7] = genetic background: doa10 deletion, temperature: 30 C
[8] = genetic background: wild type, temperature: 30 C
[9] = genetic background: wild type, temperature: 37 C
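Also: PSI is a weighted mean of sequencing reads over stability bins, variants kept only with over 10 reads, mCherry proximal and sfGFP distal, peptide attached via GGGS linker.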

For WLISLLVQPVFL, the protein stability index [1, 3] was 0.295 ± 0.0052, the protein stability index [1, 4] was 0.3167 ± 0.0022 and the protein stability index [1, 5] was 0.276 ± 0.029. For the same sequence, the protein stability index [1, 6] was 0.4053 ± 0.0021, the protein stability index [1, 7] was 0.233 ± 0.0031 and the protein stability index [1, 8] was 0.273 ± 0.02. The protein stability index [1, 9] was 0.37 ± 0.0047.
With KQSGLQIKRRKL the protein stability index [1, 3] was 0.711 ± 0.043, the protein stability index [1, 4] was 0.75156 ± 0.00069 and the protein stability index [1, 5] was 0.617 ± 0.019. It also gave a protein stability index [1, 6] of 0.7734 ± 0.0051, a protein stability index [1, 7] of 0.639 ± 0.07 and a protein stability index [1, 8] of 0.7 ± 0.056. For the same sequence, the protein stability index [1, 9] was 0.763 ± 0.061.
RSRNSEYILVYN was tested, and the protein stability index [1, 3] was 0.655 ± 0.018, the protein stability index [1, 4] was 0.672 ± 0.039 and the protein stability index [1, 5] was 0.397 ± 0.045. The protein stability index [1, 6] was 0.6343 ± 0.0031, the protein stability index [1, 7] was 0.318 ± 0.012 and the protein stability index [1, 8] was 0.391 ± 0.014. For the same sequence, the protein stability index [1, 9] was 0.66 ± 0.025.
CLVISVLFGVVA was tested, and the protein stability index [1, 3] was 0.2376 ± 0.00026, the protein stability index [1, 4] was 0.269 ± 0.067 and the protein stability index [1, 5] was 0.218 ± 0.034. The protein stability index [1, 6] was 0.382 ± 0.0091, the protein stability index [1, 7] was 0.1782 ± 0.0014 and the protein stability index [1, 8] was 0.21 ± 0.016. For the same sequence, the protein stability index [1, 9] was 0.326 ± 0.0065.
TGGGGRVSLGGG was tested, and the protein stability index [1, 3] was 0.337 ± 0.053, the protein stability index [1, 4] was 0.427 ± 0.032 and the protein stability index [1, 5] was 0.384 ± 0.021. For the same sequence, the protein stability index [1, 6] was 0.44 ± 0.022, the protein stability index [1, 7] was 0.374 ± 0.013 and the protein stability index [1, 8] was 0.372 ± 0.0084. For the same sequence, the protein stability index [1, 9] was 0.416 ± 0.044.
FLPPVHRCFSIF gave a protein stability index [1, 3] of 0.671 ± 0.037, a protein stability index [1, 4] of 0.742 ± 0.013 and a protein stability index [1, 5] of 0.653 ± 0.022. It also gave a protein stability index [1, 6] of 0.745 ± 0.021, a protein stability index [1, 7] of 0.172 ± 0.014 and a protein stability index [1, 8] of 0.193 ± 0.032. For the same sequence, the protein stability index [1, 9] was 0.3915 ± 0.0028.
With GFLFVLCAWGFF the protein stability index [1, 3] was 0.178 ± 0.017, the protein stability index [1, 4] was 0.321 ± 0.039 and the protein stability index [1, 5] was 0.227 ± 0.022. It also gave a protein stability index [1, 6] of 0.386 ± 0.019, a protein stability index [1, 7] of 0.21 ± 0.0069 and a protein stability index [1, 8] of 0.236 ± 0.0048. The protein stability index [1, 9] was 0.318 ± 0.0066.
SREYKRRTPSSK was tested, and the protein stability index [2] was 0.718 ± 0.03.
In the case of GGGGGGLVGQGD, the protein stability index [2] is reported as 0.673 ± 0.017.
Work on YAVGWLLGGLWD yielded a protein stability index [2] of 0.765 ± 0.053.
For PPAPLPAPRLAL, the protein stability index [2] was 0.709 ± 0.036.
Sequence GGGGAVRAWGLR has a protein stability index [2] of 0.736 ± 0.019.
With SPLPPPSHALLP the protein stability index [2] was 0.712 ± 0.089.
RYPSAPPKISAS gave a protein stability index [2] of 0.613 ± 0.0083.
QQATLYCTTVRK showed a protein stability index [2] of 0.682 ± 0.014.
GLCRVANGGTER gave a protein stability index [2] of 0.695 ± 0.018.
KKLSTYSVIEKS was tested, and the protein stability index [2] was 0.601 ± 0.042.
For GRLIRYGSLPSP, the protein stability index [2] was 0.729 ± 0.032.
PSPPAPPPETSP gave a protein stability index [2] of 0.713 ± 0.031.
Sequence AGSYERFSRGHR has a protein stability index [2] of 0.688 ± 0.034.
SRKTDTRLTMIN showed a protein stability index [2] of 0.692 ± 0.032.
SGLPLLSSYATR gave a protein stability index [2] of 0.72 ± 0.048.
For GCLGVRMFRVGG, the protein stability index [2] was 0.59 ± 0.015.
Work on SVFPHPYMVVRS yielded a protein stability index [2] of 0.598 ± 0.0092.
Work on KKKKKKKKTNKK yielded a protein stability index [2] of 0.762 ± 0.084.
YQAVRGRVFVAL gave a protein stability index [2] of 0.638 ± 0.044.
